Measurements as given in US20230338431.

Biological target: cAMP response element-binding protein 1 (CREB1) (UniProt P16220)
Sequence (P16220 whole entry): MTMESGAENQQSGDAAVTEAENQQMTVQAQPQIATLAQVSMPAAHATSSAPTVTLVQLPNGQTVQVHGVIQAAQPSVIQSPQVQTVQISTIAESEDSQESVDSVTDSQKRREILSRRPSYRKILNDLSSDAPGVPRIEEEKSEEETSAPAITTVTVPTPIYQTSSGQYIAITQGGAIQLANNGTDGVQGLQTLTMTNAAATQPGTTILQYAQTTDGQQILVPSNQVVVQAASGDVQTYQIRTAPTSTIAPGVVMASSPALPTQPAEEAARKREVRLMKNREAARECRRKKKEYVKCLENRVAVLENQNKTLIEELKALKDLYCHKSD

Substance: protein kinase B (AKT) subunit AKT1
- p-CREB1 expression after siRNA against AKT1, AKT2 and AKT3, immunoblotting assay: only AKT1 phosphorylated and activated its downstream effector cAMP response element-binding protein 1 (CREB1)
